PMC6385242, “Identification and characterization of a factor Va-binding site on human prothrombin fragment 2” (Scientific Reports, 2019)

What was measured:
[1] = target: Factor Va (UniProt P12259)
[2] = target: Factor Va (UniProt P12259); remark: listed apart in the source
[3] = target: Factor Va (UniProt P12259); assay: SPR; Biacore T200; FVa amine-coupled on a CM5 chip (8000-9000 RU); prothrombin 0-10,000 nM injected for 60 s at 30 uL/min; HBS (0.02 M HEPES, 0.15 M NaCl, pH 7.4) with 5 mM CaCl2 and 0.01% Tween-80; kinetic 1:1 Langmuir model

Sequence of Factor Va (P12259 29-737, chain 1 of 2): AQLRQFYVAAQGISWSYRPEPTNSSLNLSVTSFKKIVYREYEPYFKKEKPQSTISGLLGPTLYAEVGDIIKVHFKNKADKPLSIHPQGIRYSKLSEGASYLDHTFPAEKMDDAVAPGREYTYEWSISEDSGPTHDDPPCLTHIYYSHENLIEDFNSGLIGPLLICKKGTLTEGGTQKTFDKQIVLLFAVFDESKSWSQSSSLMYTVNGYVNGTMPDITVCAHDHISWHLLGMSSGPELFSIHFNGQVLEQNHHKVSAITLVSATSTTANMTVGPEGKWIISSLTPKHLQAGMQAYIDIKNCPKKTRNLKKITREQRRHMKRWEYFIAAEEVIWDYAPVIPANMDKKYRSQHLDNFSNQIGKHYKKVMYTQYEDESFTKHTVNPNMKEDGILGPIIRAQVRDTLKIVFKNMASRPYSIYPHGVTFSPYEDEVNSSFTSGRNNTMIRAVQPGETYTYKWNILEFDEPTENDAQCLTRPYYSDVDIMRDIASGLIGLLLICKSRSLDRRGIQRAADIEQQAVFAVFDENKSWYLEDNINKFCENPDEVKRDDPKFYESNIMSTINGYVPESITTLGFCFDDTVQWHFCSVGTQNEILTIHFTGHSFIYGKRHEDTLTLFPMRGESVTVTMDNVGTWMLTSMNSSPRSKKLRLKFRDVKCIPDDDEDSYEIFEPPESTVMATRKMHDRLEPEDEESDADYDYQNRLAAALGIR
Sequence of Factor Va (P12259 1574-2224, chain 2 of 2): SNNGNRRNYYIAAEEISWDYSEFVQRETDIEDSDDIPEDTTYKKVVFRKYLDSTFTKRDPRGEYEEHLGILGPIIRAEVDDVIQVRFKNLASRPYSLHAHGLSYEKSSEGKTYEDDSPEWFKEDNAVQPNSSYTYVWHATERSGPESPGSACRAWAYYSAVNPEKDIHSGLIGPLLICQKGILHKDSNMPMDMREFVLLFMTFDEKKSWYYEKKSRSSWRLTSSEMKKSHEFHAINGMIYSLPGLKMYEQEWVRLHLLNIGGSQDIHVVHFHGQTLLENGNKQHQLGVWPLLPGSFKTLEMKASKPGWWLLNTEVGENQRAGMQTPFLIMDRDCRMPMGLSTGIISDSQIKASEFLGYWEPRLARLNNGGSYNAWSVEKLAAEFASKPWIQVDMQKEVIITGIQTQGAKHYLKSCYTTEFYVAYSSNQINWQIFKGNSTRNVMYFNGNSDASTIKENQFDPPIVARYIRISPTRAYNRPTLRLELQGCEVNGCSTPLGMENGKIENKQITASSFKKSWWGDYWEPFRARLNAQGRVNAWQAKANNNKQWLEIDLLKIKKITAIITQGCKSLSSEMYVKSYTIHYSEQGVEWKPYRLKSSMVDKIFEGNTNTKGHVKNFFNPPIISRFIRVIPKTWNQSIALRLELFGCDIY

PT6 prothrombin (Gln177Ala, Gln179Ala, Arg181Ala, Leu182Thr, Val184Thr, Thr185Ala) (natural protein)
initial rate of thrombin generation, activation by FXa/FVa (5 nM FXa, 20 nM FVa, 5 mM CaCl2; DAPA) [1]: 0.0053 s⁻¹ | initial rate of thrombin generation, activation by full prothrombinase (20 pM FXa, 20 nM FVa, 50 uM PCPS, 5 mM CaCl2; DAPA) [1]: 55.1 s⁻¹ | total thrombin generated on activation by FXa/FVa, relative to wild-type prothrombin (% of wild type) [2]: 35 | total thrombin generated on activation by full prothrombinase, decrease against wild-type prothrombin (% lower than wild type) [2]: 42 | Kd [3]: 2.6 µM
